This is an account of results in patent US20220177604A1.

B1: CL-2C mAb 27 (antibody, V domains shown)
VH: QVQLVQSGAEVMKPGSSVKVSCKASGYTFSWYHLEWVRQAPGHGLEWMGEIDPGTFTTNYNEKFKARVTFTADTSTSTAYMELSSLRSEDTAVYYCARFSHFSGSNHDYFDYWGQGTLVTVSS
VL: EIVMTQSPATLSVSPGERATLSCRASQSIGTNIHWYQQKPGQAPRLLIYHASESISGIPARFSGSGSGTEFTLTISSLQSEDFAVYYCQQSWSWPTTFGGGTKVEIK
B2: CL-2C mAb 34 (antibody, V domains shown)
VH: B1 VH with S105H, H107Y
VL: B1 VL with H50Y, W94H
B3: CL-2C mAb 39 (antibody, V domains shown)
VH: B1 VH with S105H, H107Y
VL: B1 VL with H50Y
B4: CL-2C mAb 35 (antibody, V domains shown)
VH: B1 VH with H33W, H107Y
VL: B1 VL with H50Y, W94H
B5: CL-2C mAb 28 (antibody, V domains shown)
VH: B1 VH with N106H, H107Y
VL: B1 VL
B6: CL-2C mAb 31 (antibody, V domains shown)
VH: B1 VH with H33W, N59H, N106H, H107Y
VL: B1 VL with H50Y, W94H
B7: CL-2C mAb 29 (antibody, V domains shown)
VH: B1 VH with S105H, H107Y
VL: B1 VL
B8: CL-2C mAb 30 (antibody, V domains shown)
VH: B1 VH with H33W, H107Y
VL: B1 VL
B9: CL-2C mAb 32 (antibody, V domains shown)
VH: B1 VH
VL: B1 VL with H50Y, W94H
B10: CL-2C mAb 38 (antibody, V domains shown)
VH: B1 VH with N106H, H107Y
VL: B1 VL with H50Y
B11: CL-2C mAb 40 (antibody, V domains shown)
VH: B1 VH with H33W, H107Y
VL: B1 VL with H50Y
B12: CL-2C mAb 36 (antibody, V domains shown)
VH: B1 VH with H33W, N59H, N106H, H107Y
VL: B1 VL with H50Y
B13: CL-2C mAb 33 (antibody, V domains shown)
VH: B1 VH with N106H, H107Y
VL: B1 VL with H50Y, W94H
B14: 18E2VLHis-ABDEG (antibody, V domains shown)
VH: QLQLVESGGGLVQPGGSLRLSCAASGFTFSSYVMSWVRQAPGKGLEWVSSIYHDGSHTYYADFVKGRFTISRDNAKNTLYLQMNSLKSEDTAVYYCASGTSYSGSYYYTDPFFGSWGQGTQVTVSS
VL: NFMLTQPSALSVTLGQTARITCQGDRLGSRYIHWYQQKPPQAPVLVIHDDDRRPSGIPERFSGSSSGGTATLTISGAQAEDDGDYYCQSADSSGNPVFGGGTHLTVL

Changes are numbered by the printed parent chain.

Chain of human IgE pre-bound on human basophils (human) (P01854 whole entry, chain 1 of 2): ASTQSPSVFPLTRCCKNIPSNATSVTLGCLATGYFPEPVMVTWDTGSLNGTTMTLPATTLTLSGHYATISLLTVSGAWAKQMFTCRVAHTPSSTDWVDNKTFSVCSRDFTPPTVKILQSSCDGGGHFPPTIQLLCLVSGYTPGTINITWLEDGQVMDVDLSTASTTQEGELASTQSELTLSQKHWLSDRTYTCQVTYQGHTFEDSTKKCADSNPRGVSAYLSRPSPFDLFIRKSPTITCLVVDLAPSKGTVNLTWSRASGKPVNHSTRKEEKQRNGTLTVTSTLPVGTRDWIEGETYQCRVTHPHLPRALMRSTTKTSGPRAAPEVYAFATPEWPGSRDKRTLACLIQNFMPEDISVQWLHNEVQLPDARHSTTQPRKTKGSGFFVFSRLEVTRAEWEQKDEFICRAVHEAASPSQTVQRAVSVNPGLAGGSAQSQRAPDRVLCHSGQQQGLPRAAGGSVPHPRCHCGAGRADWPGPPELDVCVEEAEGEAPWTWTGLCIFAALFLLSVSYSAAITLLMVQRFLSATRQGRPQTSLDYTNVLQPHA
Chain of human IgE pre-bound on human basophils (human) (P12319 26-257, chain 2 of 2, further chain): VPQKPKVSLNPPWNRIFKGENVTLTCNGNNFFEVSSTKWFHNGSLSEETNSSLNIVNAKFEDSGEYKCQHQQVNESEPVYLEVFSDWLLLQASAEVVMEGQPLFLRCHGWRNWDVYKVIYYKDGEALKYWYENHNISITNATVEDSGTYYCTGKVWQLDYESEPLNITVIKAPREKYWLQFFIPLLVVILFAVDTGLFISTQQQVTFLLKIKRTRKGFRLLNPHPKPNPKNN

In one assay the target is recombinant Motavizumab human IgE (rMota-hIgE) (human) (UniProt P01854). Description: hIgE binding ELISA. (In general: In an ELISA, binding on a coated surface is turned into a signal by an enzyme label.)
Chain of recombinant Motavizumab human IgE (rMota-hIgE) (human) (P01854 other isoform, or with tags, fused parts or gaps limits assumed, form in doubt): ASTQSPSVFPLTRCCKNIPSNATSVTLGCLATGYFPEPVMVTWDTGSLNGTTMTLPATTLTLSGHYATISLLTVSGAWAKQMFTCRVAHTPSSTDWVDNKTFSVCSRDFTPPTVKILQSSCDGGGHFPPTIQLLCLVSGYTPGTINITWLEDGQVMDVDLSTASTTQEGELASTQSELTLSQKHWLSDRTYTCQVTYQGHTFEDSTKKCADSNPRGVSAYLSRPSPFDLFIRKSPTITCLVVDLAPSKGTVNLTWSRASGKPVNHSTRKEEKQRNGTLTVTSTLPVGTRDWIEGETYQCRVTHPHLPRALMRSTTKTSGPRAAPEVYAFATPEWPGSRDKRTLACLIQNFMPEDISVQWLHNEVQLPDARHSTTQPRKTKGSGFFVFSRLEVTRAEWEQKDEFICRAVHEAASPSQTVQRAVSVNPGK
Regarding B1, the Ratio OD450 pH 7.4/pH 6 was determined as 19.4. Still for that read-out and setting: the figure for B2 is 5.5. The same measure, in the same setting: the result for B3 reads 7.59. On the same count and under the same terms, the result for B4 reads 0.69; that for B5, 5.54. Turning to B6, the Ratio OD450 pH 7.4/pH 6 came to 10.9.

For B7, the Ratio OD450 pH 7.4/pH 6 worked out at 15.3.

B8: the Ratio OD450 pH 7.4/pH 6 is 14. Turning to B9, the Ratio OD450 pH 7.4/pH 6 was found to be 4.13. Same read-out and setting: the figure for B10 is 4.48; for B11 it is 1.

B12: the Ratio OD450 pH 7.4/pH 6 came to 10.7. On the same count and under the same terms, the figure for B13 is 2.61.

Another assay concerns the target human IgE pre-bound on human basophils (human) (UniProt P01854). As to the kind of experiment: cell-based or functional assay.
The molecule B14 yielded a % CD63+ basophils at 20 µg/mL of 3.7%, a % CD63+ basophils at 100 µg/mL of 3.1%, an SI (Stimulation Index) at 20 µg/mL of 1.48 and an SI (Stimulation Index) at 100 µg/mL of 1.24.
